Test results taken from the supplement of paper PMC6379048.

Assays:
Assay in all cases: Kd (EC50 corrected by depletion factor)
ISY1 = molecular target: T1, ISY1 (UniProt Q9ULR0)
T1 sequence: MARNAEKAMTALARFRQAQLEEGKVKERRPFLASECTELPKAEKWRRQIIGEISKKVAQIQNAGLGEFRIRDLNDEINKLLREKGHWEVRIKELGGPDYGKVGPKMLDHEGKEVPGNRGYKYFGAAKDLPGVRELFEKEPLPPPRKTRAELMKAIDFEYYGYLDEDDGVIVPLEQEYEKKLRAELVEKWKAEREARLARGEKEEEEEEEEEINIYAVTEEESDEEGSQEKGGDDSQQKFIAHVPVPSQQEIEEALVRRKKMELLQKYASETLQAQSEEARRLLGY
Method in brief: (§1)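 HEK293-FT lysate (2.5 mg protein/well) was pre-incubated 1 h at 4°C with free RNA oligos (0 nM to 30 μM), then 30 min at 4°C with the same 5′-amino-C6 oligos coupled to NHS-Sepharose beads. Bound proteins were quantified by label-free LC-MS/MS in three biological replicates and two independent experiments, and normalised to the water control. EC50 came from a four-parameter log-logistic fit; Kd is EC50 times a protein-dependent depletion factor.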

SYMPK = molecular target: T2, SYMPK (UniProt Q92797)
T2 sequence: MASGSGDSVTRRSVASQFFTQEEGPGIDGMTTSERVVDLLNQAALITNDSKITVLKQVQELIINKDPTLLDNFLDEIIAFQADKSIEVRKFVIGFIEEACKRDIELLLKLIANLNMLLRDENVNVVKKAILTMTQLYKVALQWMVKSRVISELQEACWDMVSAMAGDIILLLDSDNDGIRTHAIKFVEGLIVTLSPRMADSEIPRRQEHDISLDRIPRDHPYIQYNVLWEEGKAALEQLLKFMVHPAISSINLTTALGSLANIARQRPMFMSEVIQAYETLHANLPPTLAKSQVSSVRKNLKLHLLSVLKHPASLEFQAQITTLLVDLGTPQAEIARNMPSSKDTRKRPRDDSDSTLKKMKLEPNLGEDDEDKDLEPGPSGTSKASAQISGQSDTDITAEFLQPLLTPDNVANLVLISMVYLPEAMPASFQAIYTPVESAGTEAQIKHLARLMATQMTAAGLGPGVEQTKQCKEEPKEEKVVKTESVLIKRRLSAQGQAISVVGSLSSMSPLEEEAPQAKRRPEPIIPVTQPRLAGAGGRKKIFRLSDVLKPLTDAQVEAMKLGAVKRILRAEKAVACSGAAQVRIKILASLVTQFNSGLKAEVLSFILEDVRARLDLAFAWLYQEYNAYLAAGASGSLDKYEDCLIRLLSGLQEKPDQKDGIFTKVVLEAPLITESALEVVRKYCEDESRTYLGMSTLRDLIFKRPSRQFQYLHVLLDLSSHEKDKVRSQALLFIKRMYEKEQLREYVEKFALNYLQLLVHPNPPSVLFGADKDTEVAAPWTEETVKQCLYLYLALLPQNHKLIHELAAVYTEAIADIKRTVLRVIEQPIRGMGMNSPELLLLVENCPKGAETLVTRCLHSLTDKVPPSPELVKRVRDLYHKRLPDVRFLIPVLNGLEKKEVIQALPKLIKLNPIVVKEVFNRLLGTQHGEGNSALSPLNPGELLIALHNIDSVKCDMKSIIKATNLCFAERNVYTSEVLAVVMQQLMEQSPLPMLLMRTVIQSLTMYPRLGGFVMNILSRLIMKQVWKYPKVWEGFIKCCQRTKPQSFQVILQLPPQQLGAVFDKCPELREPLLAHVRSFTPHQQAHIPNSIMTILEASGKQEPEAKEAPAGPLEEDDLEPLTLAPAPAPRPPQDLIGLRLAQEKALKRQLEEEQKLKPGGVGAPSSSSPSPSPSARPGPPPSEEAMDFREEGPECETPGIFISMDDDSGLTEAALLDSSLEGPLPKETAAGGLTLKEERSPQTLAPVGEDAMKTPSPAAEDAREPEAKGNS
Method in brief: as §1

LSM4 = molecular target: T3, LSM4 (UniProt Q9Y4Z0)
T3 sequence: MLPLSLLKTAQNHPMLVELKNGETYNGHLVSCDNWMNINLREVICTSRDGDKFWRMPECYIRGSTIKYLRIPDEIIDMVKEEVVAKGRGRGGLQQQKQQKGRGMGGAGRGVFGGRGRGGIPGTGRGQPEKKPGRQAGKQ
Method in brief: as §1

PABPC4 = PABPC4 (UniProt Q13310)
Chain of PABPC4 (Q13310 whole entry): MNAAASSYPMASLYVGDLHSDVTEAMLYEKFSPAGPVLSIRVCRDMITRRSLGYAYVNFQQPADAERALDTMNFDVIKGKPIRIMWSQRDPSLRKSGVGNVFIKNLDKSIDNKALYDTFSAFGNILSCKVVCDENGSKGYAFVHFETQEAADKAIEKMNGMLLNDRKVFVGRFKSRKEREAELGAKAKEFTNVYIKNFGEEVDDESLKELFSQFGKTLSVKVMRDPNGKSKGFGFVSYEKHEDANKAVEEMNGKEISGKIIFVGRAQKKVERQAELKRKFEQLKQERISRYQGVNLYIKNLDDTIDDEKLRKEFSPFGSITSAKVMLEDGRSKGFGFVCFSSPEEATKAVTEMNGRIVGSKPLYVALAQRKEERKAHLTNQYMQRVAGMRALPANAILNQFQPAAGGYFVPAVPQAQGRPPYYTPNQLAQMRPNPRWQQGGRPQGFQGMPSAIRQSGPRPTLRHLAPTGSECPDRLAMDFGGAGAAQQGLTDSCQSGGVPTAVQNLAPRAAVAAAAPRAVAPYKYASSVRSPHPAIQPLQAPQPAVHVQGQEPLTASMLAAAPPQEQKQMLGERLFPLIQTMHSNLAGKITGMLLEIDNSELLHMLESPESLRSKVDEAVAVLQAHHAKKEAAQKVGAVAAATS
Method in brief: as §1

ZCCHC24 = ZCCHC24 (UniProt Q8N2G6)
Chain of ZCCHC24 (Q8N2G6 whole entry): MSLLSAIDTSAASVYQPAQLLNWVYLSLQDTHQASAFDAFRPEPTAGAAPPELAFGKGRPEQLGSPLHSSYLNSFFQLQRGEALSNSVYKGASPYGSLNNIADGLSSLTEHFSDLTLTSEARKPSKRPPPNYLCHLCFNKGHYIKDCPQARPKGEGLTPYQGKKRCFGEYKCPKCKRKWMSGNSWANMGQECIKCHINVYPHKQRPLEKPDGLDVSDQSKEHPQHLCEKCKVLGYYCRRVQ
Method in brief: as §1

CPSF3 = molecular target: T4, CPSF3 (UniProt Q9UKF6)
T4 sequence: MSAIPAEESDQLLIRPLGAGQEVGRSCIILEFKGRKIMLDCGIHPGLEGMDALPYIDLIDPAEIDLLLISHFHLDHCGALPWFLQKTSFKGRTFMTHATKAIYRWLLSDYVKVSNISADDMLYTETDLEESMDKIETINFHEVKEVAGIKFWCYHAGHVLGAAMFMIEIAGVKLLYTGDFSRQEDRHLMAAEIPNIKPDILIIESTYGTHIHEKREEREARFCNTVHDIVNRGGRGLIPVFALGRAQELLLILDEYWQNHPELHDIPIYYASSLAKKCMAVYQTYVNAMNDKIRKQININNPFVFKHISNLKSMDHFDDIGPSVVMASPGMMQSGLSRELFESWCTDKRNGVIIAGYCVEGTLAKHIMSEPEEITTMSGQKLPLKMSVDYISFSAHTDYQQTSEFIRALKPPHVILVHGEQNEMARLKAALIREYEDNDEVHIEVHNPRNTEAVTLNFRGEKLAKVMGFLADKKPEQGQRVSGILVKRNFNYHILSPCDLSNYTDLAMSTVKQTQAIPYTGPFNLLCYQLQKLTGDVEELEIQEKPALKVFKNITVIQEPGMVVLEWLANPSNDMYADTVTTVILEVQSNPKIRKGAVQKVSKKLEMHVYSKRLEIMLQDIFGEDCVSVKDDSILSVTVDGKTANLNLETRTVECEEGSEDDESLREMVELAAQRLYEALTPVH
Method in brief: as §1

ELAVL1 = ELAVL1 (UniProt Q15717)
Chain of ELAVL1 (Q15717 whole entry): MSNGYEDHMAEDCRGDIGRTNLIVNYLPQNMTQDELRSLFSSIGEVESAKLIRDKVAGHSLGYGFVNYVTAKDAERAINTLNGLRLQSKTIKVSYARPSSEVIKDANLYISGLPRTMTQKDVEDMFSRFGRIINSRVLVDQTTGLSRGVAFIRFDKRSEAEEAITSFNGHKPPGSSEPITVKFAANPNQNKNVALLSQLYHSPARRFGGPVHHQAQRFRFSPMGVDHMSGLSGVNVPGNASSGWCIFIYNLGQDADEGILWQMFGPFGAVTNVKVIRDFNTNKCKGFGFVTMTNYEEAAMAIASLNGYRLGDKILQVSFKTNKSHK
Method in brief: as §1

SRSF9 = SRSF9 (UniProt Q13242)
Chain of SRSF9 (Q13242 whole entry): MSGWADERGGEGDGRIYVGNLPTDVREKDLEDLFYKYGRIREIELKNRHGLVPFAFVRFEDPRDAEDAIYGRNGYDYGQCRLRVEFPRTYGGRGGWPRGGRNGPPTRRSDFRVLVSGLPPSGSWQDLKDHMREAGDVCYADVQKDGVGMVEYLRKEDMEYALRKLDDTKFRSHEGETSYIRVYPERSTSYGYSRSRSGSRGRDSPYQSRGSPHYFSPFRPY
Method in brief: as §1

| Sequence | Kd (ISY1) [nM] | Kd (SYMPK) [nM] | Kd (LSM4) [nM] | Kd (PABPC4) [nM] | Kd (ZCCHC24) [nM] | Kd (CPSF3) [nM] | Kd (ELAVL1) [nM] | Kd (SRSF9) [nM] |
| --- | --- | --- | --- | --- | --- | --- | --- | --- |
| AAUAAA | 198 | 12.7 | 70.5 | 1530 | 207 | 5.97 | 440 |  |
| CUGUCCU |  |  |  |  |  |  |  | 2230 |
| UAUUUAU | 414 | 254 | 241 | 7840 | 1910 | 270 | 920 | 5920 |
